Several values for one entry are separate records, joined by “and”; a condition that tells them apart may be missing. Equal entries are not always repeated.

These results are taken from patent US20040256230A1, “Microfluidic devices for transverse electrophoresis and isoelectric focusing” (University of Washington, priority 1999, published 2004).

For data set [1] the following is noted: stated, literature or standard value; cited from earlier work.
The nature of data set [2]: Stability of the fluorescence of the BSA conjugate over a broad range of pH values. Format: physicochemical. To be noted: pH 2.5 to 10.0, 1.52 μM, excitation 495 nm, every 30 minutes for 4.5 hours. As to the method:
(§1) Isoelectric points of proteins were determined by comparison with positions of standards.
The fluorescence of the BSA-Bodipy FL conjugate is reported to be insensitive to pH between 4 and 8. […] A fluorescence spectrum from 500-550 nm for an excitation wavelength of 495.0±2.5 nm was recorded for each of the solutions immediately after its preparation and then after each 30 minutes for 4.5 hours.

A short description of data set [3]: Isoelectric point by polyacrylamide gel isoelectric focusing, compared with positions of standards. Format: physicochemical. To be noted: constant voltage, mini IEF cell. As to the method:
The isoelectric points (pI) of proteins were determined experimentally by polyacrylamide gel isoelectric focusing, using the procedure specified by BiORad Laboratories, Inc. (Hercules, Calif.). A mini IEF cell (Model 111) purchased from BiORad equipped by two graphite electrodes was employed for this purpose. Focusing was carried out under constant voltage conditions (Power Pac 1000, BiORad).
as §1

Data set [4] is described as follows: Isoelectric focusing in the microchannel (microfluidic IEF), position of the focused zone. Format: physicochemical. The following applies: 0.1 mM histidine buffer, initial pH 7.1, 2.5V for 6 minutes. The protocol: Bovine hemoglobin (Hb) was selected as a test case because of its strong absorbance at 550 nm (facilitating observation without need for additional dyes). The pI of Hb is 7.1, as verified by polyacrylamide gel isoelectric focusing run at the same concentration as was used for IEF in the microchannel. […] A voltage of 2.5V (resulting in a current of 5 μA) was applied for 6 minutes. Two zones of higher optical density close to the electrodes were formed within 15 s. They moved towards each other meeting to form one dark zone after 5 minutes. Even with a relatively high concentration of Hb (1.55×10^−4 M), the darker zones and their migration were barely visible in color images. Normalized plots of green pixel values vs. position allowed monitoring of Hb migration. The position of the final focused zone of Hb in the microchannel corresponded to a pH of 7.1±0.3 on the basis of previous results with acid-base indicators under similar conditions (FIG. 8). The pI value determined by IEF in the microchannel was within experimental error, identical to that in the literature and that determined by our gel IEF experiment.

On to `N[C@@H](Cc1c[nH]cn1)C(=O)O` [histidine], for which the “isoelectric point (pI)” value in data set [1] is listed as 7.4.

As for “BSA conjugate: fluorescent bovine serum albumin (BSA)—Bodipy FL conjugate (Molecular Probes)”, in data set [2], the “change of fluorescence over time” value is recorded as “did not significantly change”. In data set [3], the “pI determined by polyacrylamide gel isoelectric focusing” value was 4.6±0.1 and 4.65.

Consider “Bovine hemoglobin: bovine hemoglobin (Sigma), test analyte for isoelectric focusing”, for which the “isoelectric point (pI)” value in data set [1] is 7.1. In addition, in data set [4], the “pH corresponding to the position of the final focused zone in the microchannel” value was found to be 7.1±0.3. In data set [3], the “pI determined by polyacrylamide gel isoelectric focusing” value was 7.1.

As to “human hemoglobin A: pI standard in gel isoelectric focusing”, in data set [1], the “isoelectric point (pI)” value is 7.1.

In the case of phycocyanin, the “isoelectric point (pI)” value in data set [1] is on record as 4.65.
